According to IntAct's records for PubMed 31515488:

B1: Prelamin-A/C (Homo sapiens), P02545 (parent)
chain: METPSQRRATRSGAQASSTPLSPTRITRLQEKEDLQELNDRLAVYIDRVRSLETENAGLRLRITESEEVVSREVSGIKAAYEAELGDARKTLDSVAKERARLQLELSKVREEFKELKARNTKKEGDLIAAQARLKDLEALLNSKEAALSTALSEKRTLEGELHDLRGQVAKLEAALGEAKKQLQDEMLRRVDAENRLQTMKEELDFQKNIYSEELRETKRRHETRLVEIDNGKQREFESRLADALQELRAQHEDQVEQYKKELEKTYSAKLDNARQSAERNSNLVGAAHEELQQSRIRIDSLSAQLSQLQKQLAAKEAKLRDLEDSLARERDTSRRLLAEKEREMAEMRARMQQQLDEYQELLDIKLALDMEIHAYRKLLEGEEERLRLSPSPTSQRSRGRASSHSSQTQGGGSVTKKRKLESTESRSSFSQHARTSGRVAVEEVDEEGKFVRLRNKSNEDQSMGNWQIKRQNGDDPLLTYRFPPKFTLKAGQVVTIWAAGAGATHSPPTDLVWKAQNTWGCGNSLRTALINSTGEEVAMRKLVRSVTVVEDDEDEDGDDLLHHHHGSHCSSSGDPAEYNLRSRTVLCGTCGQPADKASASGSGAQVGGPISSGSSASSVTVTRSYRSVGGSGGGSFGDNLVTRSYLLGNSSPRTQSPQNCSIM
partner: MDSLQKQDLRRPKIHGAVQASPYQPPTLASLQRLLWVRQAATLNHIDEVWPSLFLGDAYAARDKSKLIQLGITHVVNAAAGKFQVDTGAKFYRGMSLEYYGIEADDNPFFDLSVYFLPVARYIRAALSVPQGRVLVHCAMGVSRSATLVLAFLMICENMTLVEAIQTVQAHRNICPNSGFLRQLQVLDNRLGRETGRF
B2: Caspase recruitment domain-containing protein 9 (Homo sapiens), Q9H257 (parent)
chain: MSDYENDDECWSVLEGFRVTLTSVIDPSRITPYLRQCKVLNPDDEEQVLSDPNLVIRKRKVGVLLDILQRTGHKGYVAFLESLELYYPQLYKKVTGKEPARVFSMIIDASGESGLTQLLMTEVMKLQKKVQDLTALLSSKDDFIKELRVKDSLLRKHQERVQRLKEECEAGSRELKRCKEENYDLAMRLAHQSEEKGAALMRNRDLQLEIDQLKHSLMKAEDDCKVERKHTLKLRHAMEQRPSQELLWELQQEKALLQARVQELEASVQEGKLDRSSPYIQVLEEDWRQALRDHQEQANTIFSLRKDLRQGEARRLRCMEEKEMFELQCLALRKDSKMYKDRIEAILLQMEEVAIERDQAIATREELHAQHARGLQEKDALRKQVRELGEKADELQLQVFQCEAQLLAVEGRLRRQQLETLVLSSDLEDGSPRRSQELSLPQDLEDTQLSDKGCLAGGGSPKQPFAALHQEQVLRNPHDAGLSSGEPPEKERRRLKESFENYRRKRALRKMQKGWRQGEEDRENTTGSDNTDTEGS
partner: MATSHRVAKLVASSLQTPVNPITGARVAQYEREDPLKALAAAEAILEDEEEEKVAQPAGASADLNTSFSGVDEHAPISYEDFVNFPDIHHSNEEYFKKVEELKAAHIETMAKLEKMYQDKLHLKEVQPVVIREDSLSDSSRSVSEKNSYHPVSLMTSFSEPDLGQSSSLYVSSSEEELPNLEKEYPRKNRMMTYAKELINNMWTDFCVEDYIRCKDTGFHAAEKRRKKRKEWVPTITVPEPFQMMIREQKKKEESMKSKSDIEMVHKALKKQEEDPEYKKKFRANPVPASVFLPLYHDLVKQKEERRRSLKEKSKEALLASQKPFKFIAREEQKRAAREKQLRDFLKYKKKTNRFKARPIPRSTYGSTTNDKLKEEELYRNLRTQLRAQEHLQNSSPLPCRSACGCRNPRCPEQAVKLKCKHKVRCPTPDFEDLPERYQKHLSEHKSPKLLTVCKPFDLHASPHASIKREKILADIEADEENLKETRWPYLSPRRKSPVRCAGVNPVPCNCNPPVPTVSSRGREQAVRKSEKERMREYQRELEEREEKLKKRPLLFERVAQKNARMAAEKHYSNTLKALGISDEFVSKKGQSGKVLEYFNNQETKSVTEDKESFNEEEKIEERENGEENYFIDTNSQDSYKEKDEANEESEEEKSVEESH
B3: Ornithine decarboxylase antizyme 3 (Homo sapiens), Q9UMX2 (parent)
chain: MPCKRCRPSVYSLSYIKRGKTRNYLYPIWSPYAYYLYCYKYRITLREKMLPRCYKSITYKEEEDLTLQPRSCLQCSESLVGLQEGKSTEQGNHDQLKELYSAGNLTVLATDPLLHQDPVQLDFHFRLTSQTSAHWHGLLCDRRLFLDIPYQALDQGNRESLTATLEYVEEKTNVDSVFVNFQNDRNDRGALLRAFSYMGFEVVRPDHPALPPLDNVIFMVYPLERDVGHLPSEPP
B4: Medium-chain acyl-CoA ligase ACSF2, mitochondrial (Homo sapiens), Q96CM8 (parent)
chain: MAVYVGMLRLGRLCAGSSGVLGARAALSRSWQEARLQGVRFLSSREVDRMVSTPIGGLSYVQGCTKKHLNSKTVGQCLETTAQRVPEREALVVLHEDVRLTFAQLKEEVDKAASGLLSIGLCKGDRLGMWGPNSYAWVLMQLATAQAGIILVSVNPAYQAMELEYVLKKVGCKALVFPKQFKTQQYYNVLKQICPEVENAQPGALKSQRLPDLTTVISVDAPLPGTLLLDEVVAAGSTRQHLDQLQYNQQFLSCHDPINIQFTSGTTGSPKGATLSHYNIVNNSNILGERLKLHEKTPEQLRMILPNPLYHCLGSVAGTMMCLMYGATLILASPIFNGKKALEAISRERGTFLYGTPTMFVDILNQPDFSSYDISTMCGGVIAGSPAPPELIRAIINKINMKDLVVAYGTTENSPVTFAHFPEDTVEQKAESVGRIMPHTEARIMNMEAGTLAKLNTPGELCIRGYCVMLGYWGEPQKTEEAVDQDKWYWTGDVATMNEQGFCKIVGRSKDMIIRGGENIYPAELEDFFHTHPKVQEVQVVGVKDDRMGEEICACIRLKDGEETTVEEIKAFCKGKISHFKIPKYIVFVTNYPLTISGKIQKFKLREQMERHLNL
partner: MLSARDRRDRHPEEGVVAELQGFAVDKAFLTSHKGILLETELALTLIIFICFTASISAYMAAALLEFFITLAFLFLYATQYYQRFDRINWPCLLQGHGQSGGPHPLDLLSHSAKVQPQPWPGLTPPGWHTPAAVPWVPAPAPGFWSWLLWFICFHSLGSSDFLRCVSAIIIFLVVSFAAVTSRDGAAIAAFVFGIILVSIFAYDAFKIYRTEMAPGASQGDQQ
B5: Phagosome assembly factor 1 (Homo sapiens), Q9BSU1 (parent)
chain: MLDLEVVPERSLGNEQWEFTLGMPLAQAVAILQKHCRIIKNVQVLYSEQSPLSHDLILNLTQDGIKLMFDAFNQRLKVIEVCDLTKVKLKYCGVHFNSQAIAPTIEQIDQSFGATHPGVYNSAEQLFHLNFRGLSFSFQLDSWTEAPKYEPNFAHGLASLQIPHGATVKRMYIYSGNSLQDTKAPMMPLSCFLGNVYAESVDVLRDGTGPAGLRLRLLAAGCGPGLLADAKMRVFERSVYFGDSCQDVLSMLGSPHKVFYKSEDKMKIHSPSPHKQVPSKCNDYFFNYFTLGVDILFDANTHKVKKFVLHTNYPGHYNFNIYHRCEFKIPLAIKKENADGQTETCTTYSKWDNIQELLGHPVEKPVVLHRSSSPNNTNPFGSTFCFGLQRMIFEVMQNNHIASVTLYGPPRPGSHLRTAELP
B6: Protein PALS1 (Homo sapiens), Q8N3R9 (parent)
chain: MTTSHMNGHVTEESDSEVKNVDLASPEEHQKHREMAVDCPGDLGTRMMPIRRSAQLERIRQQQEDMRRRREEEGKKQELDLNSSMRLKKLAQIPPKTGIDNPMFDTEEGIVLESPHYAVKILEIEDLFSSLKHIQHTLVDSQSQEDISLLLQLVQNKDFQNAFKIHNAITVHMNKASPPFPLISNAQDLAQEVQTVLKPVHHKEGQELTALLNTPHIQALLLAHDKVAEQEMQLEPITDERVYESIGQYGGETVKIVRIEKARDIPLGATVRNEMDSVIISRIVKGGAAEKSGLLHEGDEVLEINGIEIRGKDVNEVFDLLSDMHGTLTFVLIPSQQIKPPPAKETVIHVKAHFDYDPSDDPYVPCRELGLSFQKGDILHVISQEDPNWWQAYREGDEDNQPLAGLVPGKSFQQQREAMKQTIEEDKEPEKSGKLWCAKKNKKKRKKVLYNANKNDDYDNEEILTYEEMSLYHQPANRKRPIILIGPQNCGQNELRQRLMNKEKDRFASAVPHTTRSRRDQEVAGRDYHFVSRQAFEADIAAGKFIEHGEFEKNLYGTSIDSVRQVINSGKICLLSLRTQSLKTLRNSDLKPYIIFIAPPSQERLRALLAKEGKNPKPEELREIIEKTREMEQNNGHYFDTAIVNSDLDKAYQELLRLINKLDTEPQWVPSTWLR
partner: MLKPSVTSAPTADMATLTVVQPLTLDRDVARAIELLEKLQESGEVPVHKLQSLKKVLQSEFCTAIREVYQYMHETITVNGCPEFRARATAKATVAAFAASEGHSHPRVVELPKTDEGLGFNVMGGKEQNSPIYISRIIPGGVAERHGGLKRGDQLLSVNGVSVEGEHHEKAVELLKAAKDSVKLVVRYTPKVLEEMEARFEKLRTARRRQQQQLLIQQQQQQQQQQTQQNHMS
B7: Protein DBF4 homolog A (Homo sapiens), Q9UBU7 (parent)
chain: MNSGAMRIHSKGHFQGGIQVKNEKNRPSLKSLKTDNRPEKSKCKPLWGKVFYLDLPSVTISEKLQKDIKDLGGRVEEFLSKDISYLISNKKEAKFAQTLGRISPVPSPESAYTAETTSPHPSHDGSSFKSPDTVCLSRGKLLVEKAIKDHDFIPSNSILSNALSWGVKILHIDDIRYYIEQKKKELYLLKKSSTSVRDGGKRVGSGAQKTRTGRLKKPFVKVEDMSQLYRPFYLQLTNMPFINYSIQKPCSPFDVDKPSSMQKQTQVKLRIQTDGDKYGGTSIQLQLKEKKKKGYCECCLQKYEDLETHLLSEQHRNFAQSNQYQVVDDIVSKLVFDFVEYEKDTPKKKRIKYSVGSLSPVSASVLKKTEQKEKVELQHISQKDCQEDDTTVKEQNFLYKETQETEKKLLFISEPIPHPSNELRGLNEKMSNKCSMLSTAEDDIRQNFTQLPLHKNKQECILDISEHTLSENDLEELRVDHYKCNIQASVHVSDFSTDNSGSQPKQKSDTVLFPAKDLKEKDLHSIFTHDSGLITINSSQEHLTVQAKAPFHTPPEEPNECDFKNMDSLPSGKIHRKVKIILGRNRKENLEPNAEFDKRTEFITQEENRICSSPVQSLLDLFQTSEEKSEFLGFTSYTEKSGICNVLDIWEEENSDNLLTAFFSSPSTSTFTGF

Variants of: B1
Settings: with ds13b_human DUSP13B

| Variant | effect of a mutation on the interaction |
| --- | --- |
| I299V | with no effect |

Variants of: B2
Settings: with FAM161A

| Variant | effect of a mutation on the interaction |
| --- | --- |
| V385L | with no effect |

Variants of: B3
Settings: with azin1_human AZIN1, O14977
Sequence of azin1_human AZIN1, O14977 (O14977 whole entry): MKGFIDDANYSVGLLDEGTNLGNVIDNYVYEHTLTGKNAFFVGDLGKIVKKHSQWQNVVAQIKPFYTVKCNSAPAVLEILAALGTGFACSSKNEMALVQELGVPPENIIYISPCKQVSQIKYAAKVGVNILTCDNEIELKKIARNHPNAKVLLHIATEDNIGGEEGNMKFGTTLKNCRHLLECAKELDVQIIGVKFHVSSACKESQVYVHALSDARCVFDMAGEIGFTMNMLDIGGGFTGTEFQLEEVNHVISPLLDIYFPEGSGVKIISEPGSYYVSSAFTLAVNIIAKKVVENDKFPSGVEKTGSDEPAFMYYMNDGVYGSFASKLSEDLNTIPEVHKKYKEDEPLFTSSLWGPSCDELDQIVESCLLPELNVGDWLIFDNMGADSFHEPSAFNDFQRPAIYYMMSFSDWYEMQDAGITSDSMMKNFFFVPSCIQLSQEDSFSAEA

| Variant | effect of a mutation on the interaction |
| --- | --- |
| V174A | with no effect |
| R193Q | with no effect |

Variants of: B4
Settings: with cklf5_human CMTM5, Q96DZ9

| Variant | effect of a mutation on the interaction |
| --- | --- |
| G19W | disrupting interaction strength |
| A34V | disrupting interaction strength |

Variants of: B5
Settings: with bcas3_human BCAS3, Q9H6U6
Sequence of bcas3_human BCAS3, Q9H6U6 (Q9H6U6 whole entry): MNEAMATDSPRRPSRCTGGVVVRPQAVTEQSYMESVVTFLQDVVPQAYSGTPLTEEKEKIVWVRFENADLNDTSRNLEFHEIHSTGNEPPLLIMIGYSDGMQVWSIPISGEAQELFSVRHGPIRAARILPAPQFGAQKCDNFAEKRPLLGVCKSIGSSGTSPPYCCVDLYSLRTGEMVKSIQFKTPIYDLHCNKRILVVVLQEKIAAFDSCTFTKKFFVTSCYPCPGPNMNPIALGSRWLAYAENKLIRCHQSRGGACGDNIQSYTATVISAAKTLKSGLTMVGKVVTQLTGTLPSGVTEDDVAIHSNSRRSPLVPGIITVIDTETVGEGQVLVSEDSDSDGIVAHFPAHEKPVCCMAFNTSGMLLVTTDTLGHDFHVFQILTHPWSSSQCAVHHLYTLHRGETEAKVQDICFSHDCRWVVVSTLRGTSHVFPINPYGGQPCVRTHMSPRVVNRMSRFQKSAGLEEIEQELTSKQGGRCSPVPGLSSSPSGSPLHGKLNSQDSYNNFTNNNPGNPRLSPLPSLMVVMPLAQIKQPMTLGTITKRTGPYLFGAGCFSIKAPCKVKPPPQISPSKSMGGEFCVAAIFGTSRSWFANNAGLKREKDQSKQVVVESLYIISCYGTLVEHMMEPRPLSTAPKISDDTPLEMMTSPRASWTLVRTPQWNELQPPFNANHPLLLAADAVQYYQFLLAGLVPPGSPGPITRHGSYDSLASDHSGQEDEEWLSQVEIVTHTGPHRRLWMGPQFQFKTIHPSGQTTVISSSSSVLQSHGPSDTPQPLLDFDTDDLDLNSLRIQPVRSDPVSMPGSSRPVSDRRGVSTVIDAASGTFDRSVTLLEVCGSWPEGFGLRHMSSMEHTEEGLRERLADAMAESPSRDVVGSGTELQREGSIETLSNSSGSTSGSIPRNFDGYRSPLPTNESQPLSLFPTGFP

| Variant | effect of a mutation on the interaction |
| --- | --- |
| G13R | with no effect |

Variants of: B6
Settings: with lin7a_human LIN7A

| Variant | effect of a mutation on the interaction |
| --- | --- |
| S141Y | with no effect |

Variants of: B7
Settings: with cdc7_human CDC7, O00311

| Variant | effect of a mutation on the interaction |
| --- | --- |
| L306I | with no effect |
| K579E | with no effect |
| I526V | with no effect |
